Assay results reported in patent US20200165312A1, “COSMETIC COMPOSITION FOR IMPROVING SKIN CONDITIONS COMPRISING FUSION PROTEIN INCLUDING SKIN PENETRATION ENHANCING PEPTIDE” (LG HOUSEHOLD & HEALTH CARE LTD., priority 2017, published 2020).

Tests used:
[1] = Skin retentivity of growth factor fusion proteins (porcine skin disrupted, ELISA); type: in vitro ADME; conditions: for Remaining amount (%): skin after 16 hours penetration test; for skin retentivity higher than the unfused protein: summary of Tables 8, 13, 17, 21, 25
Method: (§1) Specifically, the porcine skin remained after the experiment of Example 3-2-4 was recovered, frozen in liquid nitrogen, and disrupted. An amount of PDGFa or T-PDGFa contained therein was quantitatively analyzed using the ELISA kit (R&D Systems). In addition, a relative amount of T-PDGFa to PDGFa was calculated as a remaining amount (Table 8).
Specifically, the porcine skin remained after the experiment of Example 3-3-4 was recovered, frozen in liquid nitrogen, and disrupted. An amount of VEGF or T-VEGF contained therein was quantitatively analyzed using the ELISA kit (R&D Systems).
as §1, with “3-4-4” for “3-2-4”, “IGF-1” for “PDGFa”, “T-IGF-1” for “T-PDGFa”, “17).” for “8).”
as §1, with “3-5-3” for “3-2-4”, “KGF” for “PDGFa”, “T-KGF” for “T-PDGFa”, “21).” for “8).”
as §1, with “3-6-3” for “3-2-4”, “Tβ4” for “PDGFa”, “T-Tβ4” for “T-PDGFa”, “25).” for “8).”

[2] = test system: human umbilical vein endothelial cells; test: Endothelial cell proliferation, Cell Counter Kit-8; type: cell-based
Method: Specifically, human umbilical vein endothelial cells were inoculated onto a 96-well plate and cultured for 24 hours to obtain cultures at a density of 5,000 cells per well. The cultures were washed with PBS and cultured in a serum-free M199 medium for 16 hours. […] The cultures were obtained therefrom and a difference between proliferated amounts of cells was quantitively analyzed using the Cell Counter Kit-8 (Dojindo).
Specifically, human umbilical vein endothelial cells were inoculated onto a 96-well plate and cultured for 24 hours to obtain cultures at a density of 5,000 cells per well. The cultures were washed with PBS and cultured in a serum-free M199 medium for 16 hours. The cells were washed with PBS again and cultured in a serum-free M199 medium supplemented with 100 ng/mL T-Tβ4 or Tβ4 for one day. The cultures were obtained therefrom and a difference between proliferated amounts of cells was quantitively analyzed using the Cell Counter Kit-8 (Dojindo). Here, human umbilical vein endothelial cells cultured in a serum-free M199 medium without T-Tβ4 or Tβ4 were used as a control (Table 22).

dermal fibroblasts = test: Hyaluronic acid (HA) production in dermal fibroblasts (ELISA); type: cell-based, human; conditions: two days
Method: (§2) Specifically, dermal fibroblasts were inoculated onto a 24-well plate and cultured for 24 hours to obtain cultures having a saturation degree of 70 to 80%. The cultures were washed with PBS and cultured in a serum-free DMEM medium including 10 ng/mL T-PDGFa or PDGFa for two days. A supernatant was obtained therefrom and the amount of hyaluronic acid (HA) produced and released in the culture solution was quantitively analyzed using an ELISA kit (R&D Systems) (Table 5).
as §2, with “The cultures were washed with PBS and cultured in a serum-free DMEM medium including 10 ng/mL T-PDGFa or PDGFa for two days.” left out, “9).” for “5).”

skin keratinocytes = test: Keratinocyte growth (skin barrier strengthening), Cell Counter Kit-8; type: cell-based; conditions: for Production (%) (keratinocyte growth): 100 ng/mL T-KGF or KGF, one day, control = 100
Method: (§3) Specifically, skin keratinocytes were cultured in a 96-well plate for one day to obtain cultures at a density of 6,000 cells per well. The cultures were washed with PBS and cultured in a serum-free DMEM medium for one day. The cells were washed with PBS again and cultured in a serum-free DMEM medium supplemented with 100 ng/mL T-IGF-1 or IGF-1 for one day. The cultures were obtained therefrom and a difference between proliferated amounts of cells was quantitively analyzed using the Cell Counter Kit-8 (Dojindo). Here, skin keratinocytes cultured in a serum-free DMEM medium without T-IGF-1 or IGF-1 were used as a control (Table 14).
Specifically, skin keratinocytes were cultured in a 96-well plate for 24 hours to obtain cultures at a density of 6,000 cells per well.
as §3, with “The” for “Specifically, skin keratinocytes were cultured in a 96-well plate for one day to obtain cultures at a density of 6,000 cells per well. The”, “T-KGF” for “T-IGF-1”, “KGF” for “IGF-1”, “18).” for “14).”

Row | Molecule | Remaining amount (%) ([1]; relative to VEGF) | skin retentivity higher than the unfused protein [1] | Proliferation (%) ([2]; 100 ng/mL T-VEGF or VEGF, serum-free M199, one day, control = 100) | cell proliferation effect compared with the unfused protein ([2]; human umbilical vein endothelial cells, 100 ng/mL) | Production (%) of hyaluronic acid (HA) (dermal fibroblasts; 10 ng/mL T-VEGF or VEGF, control = 100) [%] | hyaluronic acid producing effect compared with the unfused protein (dermal fibroblasts; 10 ng/mL) | Production (%) (keratinocyte growth) (skin keratinocytes) | Remaining amount (%) ([1]; relative to KGF) | effect in keratinocyte growth test compared with the unfused protein (skin keratinocytes; skin keratinocytes, 100 ng/mL)
1 | T-VEGF: SEQ ID NO: 1 peptide C-terminal linked to N-terminal of VEGF via GG linker (protein, Synthetic Fusion protein of T-VEGF) NGSLNTHLAPILGGAPMAEGGGQNHHEVVKFMDVYQRSYCHPIETLVDIFQEYPDEIEYIFKPSCVPLMRCGGCCNDEGLECVPTEESNITMQIMRIKPHQGQHIGEMSFLQHNKCECRPKKDRARQENPCGPCSERRKHLFVQDPQTCKCSCKNTDSRCKARQLELNERTCRCDKPRR | 9,800 ± 790% | about 100 times | 185 ± 15 | same level | 230 ± 18 | same level | – | – | –
2 | KGF: keratinocyte growth factor having an amino acid sequence of SEQ ID NO: 44 (protein, Human KGF) CNDMTPEQMATNVNCSSPERHTRSYDYMEGGDIRVRRLFCRTQWYLRIDKRGKVKGTQEMKNNYNIMEIRTVAVGIVAIKGVESEFYLAMNKEGKLYAKKECNEDCNFKELILENHYNTYASAKWTHNGGEMFVALNQKGIPVRGKKTKKEQKTAHFLPMAIT | – | – | – | – | – | – | 620 ± 25 | 100 ± 17% | –
3 | T-KGF: SEQ ID NO: 1 peptide C-terminal linked to N-terminal of KGF via GG linker (protein, Synthetic Fusion protein of T-KGF) NGSLNTHLAPILGGCNDMTPEQMATNVNCSSPERHTRSYDYMEGGDIRVRRLFCRTQWYLRIDKRGKVKGTQEMKNNYNIMEIRTVAVGIVAIKGVESEFYLAMNKEGKLYAKKECNEDCNFKELILENHYNTYASAKWTHNGGEMFVALNQKGIPVRGKKTKKEQKTAHFLPMAIT | – | about 100 times | – | – | – | – | 590 ± 27 | 9,700 ± 850% | same level
